Data from patent US20070274981A1 (Eli Lilly, published 2007).

Experiments:
Recombinant FGFR-4 [1] = target: T1, Recombinant FGFR-4 (UniProt P22455 22-369); assay: kinetic analysis (BiaCore)
T1 construct: Bought (R&D Systems); also called FGFR-4(IIIc)
T1 sequence (looked up): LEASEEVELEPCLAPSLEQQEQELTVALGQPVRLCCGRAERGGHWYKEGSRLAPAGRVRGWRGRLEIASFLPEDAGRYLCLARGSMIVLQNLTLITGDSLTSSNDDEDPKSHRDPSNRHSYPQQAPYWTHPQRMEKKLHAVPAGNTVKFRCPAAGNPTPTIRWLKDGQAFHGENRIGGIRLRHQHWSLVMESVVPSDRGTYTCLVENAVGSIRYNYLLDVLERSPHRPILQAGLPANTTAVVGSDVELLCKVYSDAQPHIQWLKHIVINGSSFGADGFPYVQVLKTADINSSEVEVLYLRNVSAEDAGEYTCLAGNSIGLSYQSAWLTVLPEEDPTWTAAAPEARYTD

Recombinant FGFR-1(IIIb) [2] = target: T2, Recombinant FGFR-1(IIIb) (UniProt P11362-19 22-376); assay: kinetic analysis (BiaCore)
T2 construct: Bought (R&D Systems); also called FGFR-1b; FGFR-(IIIb); not shown: Fc-tag of the recombinant receptor (detected with anti-human Fc)
T2 sequence (looked up): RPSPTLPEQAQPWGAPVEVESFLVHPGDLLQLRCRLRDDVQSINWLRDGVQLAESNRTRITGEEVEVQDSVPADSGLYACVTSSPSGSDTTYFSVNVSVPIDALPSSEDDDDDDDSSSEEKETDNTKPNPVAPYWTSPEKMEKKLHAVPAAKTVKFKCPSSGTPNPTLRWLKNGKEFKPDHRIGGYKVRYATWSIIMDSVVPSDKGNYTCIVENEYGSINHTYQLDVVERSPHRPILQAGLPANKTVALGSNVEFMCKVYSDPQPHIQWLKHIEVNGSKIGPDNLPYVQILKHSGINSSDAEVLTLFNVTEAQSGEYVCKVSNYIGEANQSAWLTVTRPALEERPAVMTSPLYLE

Recombinant FGFR-4 [3] = target: T1, Recombinant FGFR-4; assay: BiaCore 3000 biosensor, binding kinetics
Recombinant FGFR-1(IIIb) [4] = target: T2, Recombinant FGFR-1(IIIb); assay: BiaCore 3000 biosensor, binding kinetics
Recombinant FGFR-1(IIIb) [5] = target: T2, Recombinant FGFR-1(IIIb); assay: ELISA blocking assay: FGFR-1(IIIb) binding to immobilised FGF-1
Procedure: (§1) Recombinant FGFs (R&D systems, Minneapolis, Minn.) were coated on Immulon® 2B microtiter plates (ThermoLab Systems, Franklin, Mass.) at concentrations of 0.5-2 μg/ml for 2 hrs. The plates were then washed with 0.2% Tween20/PBS, and blocked with 5% milk/PBS for 2 hrs before use. Phage or antibody was serially diluted with 5 μg/ml heparin (Sigma, St Louis, Mo.), 5% milk, PBS. Recombinant FGFR-1 (R&D Systems) was then added to a final concentration of 1 μg/ml. […] Plates were then washed 3 times with 0.2% Tween20/PBS. The bound receptors were detected using an anti-human Fc monoclonal antibody coupled with HRP (Pierce Biotechnology Inc., Rockford, Ill.) solution prepared according to supplier's instructions. Data were presented as % inhibition of ligand-receptor binding of the controls.
(§2) The blocking activities to fully active, native FGFR-1 receptor were determined in the cell-based blocking assay.

Recombinant FGFR-1(IIIb) [6] = target: T2, Recombinant FGFR-1(IIIb); assay: ELISA blocking assay: FGFR-1(IIIb) binding to immobilised FGF-2
Procedure: as §1, §2

Recombinant FGFR-1(IIIb) [7] = target: T2, Recombinant FGFR-1(IIIb); assay: BiaCore analyses

B1: FR1-A1 (antibody, V domains shown)
VH: QVQLVQSGAEVKKPGSSVKVSCKASGQTFTGYYMHWVRQAPGQGLEWMGRIIPILGIANYAQKFQGRVTITADKSTSTAYMELSSLRSEDTAVYYCARGGDLGGMDVWGQG
VL: EIVLTQSPLSLPVTPGEPASISCRSSQSLRHSNGYNYLDWYLQKPGQSPQLLIYLASNRASGVPDRFSGSGSGTDFTLKISRVEAEDVGVYYCMQALQIPPTFGPGTKVDIKR
notes: also called FR1-A1 antibody
Question: B1 was tested. Which Kd (Recombinant FGFR-4 [1]) did it give?
Answer: The Kd was 90 nM.

B2: FR1-H7 (antibody, V domains shown)
VH: EVQLVQSGAEVKKPGASVKVSCKVSGYTFTDYYMHWVQQAPGKGLEWMGLVDPEDGETIYAEKFQGRVTITADTSTDTAYMELSSLRSEDTAVYYCARDDYMDVWGKGTLVTVSS
VL: ETTLTQSPDTLSLSPGEGATLSCRASQSVSGSALAWYQQKPGQAPRLLIYDASSRATGVPDRFSGSGSGADFSLTISRLEPEDFAVYSCQQYGSSPLTFGPGTKVDVKR
notes: also called FR1-H7 antibody
Question: Which results are given for B2?
Answer: Kd (Recombinant FGFR-1(IIIb) [2]): ~0.05 nM; Kd (Recombinant FGFR-4 [3]): 200 nM; Kd (Recombinant FGFR-1(IIIb) [4]): 0.06 nM; IC50 (Recombinant FGFR-1(IIIb) [5]): ~5 nM; IC50 (Recombinant FGFR-1(IIIb) [6]): 2 to 5 nM

B3: FR1-4H (antibody, V domains shown)
VH: QVQLVEFGPGLVKPSETLSLTCTVSGGSISSYYWSWIRQPPGKGLEWIGYIYYSGSTNYNPSLKSRVAISVDTSKNQFSLKLSSVTAADTAVYYCAREYYYDSSGYYFYAFDIWGQGTTVTVSS
VL: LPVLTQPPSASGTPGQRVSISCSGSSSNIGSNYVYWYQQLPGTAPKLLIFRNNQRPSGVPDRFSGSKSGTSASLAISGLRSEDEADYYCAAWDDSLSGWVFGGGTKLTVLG
notes: Isolated by the same procedure as FR1-H7 and FR1-A1
Question: Which Kd (Recombinant FGFR-1(IIIb) [7]) does the source give for B3 here?
Answer: The Kd was 1.1 nM.
